Data: the supplement of paper PMC9112550, “Optimization of the antimicrobial peptide Bac7 by deep mutational scanning” (BMC Biology, 2022)

Tested on: Escherichia coli TOP10
Assay: shrunken log2 fold change of peptide-encoding DNA abundance (4.5 h post-induction vs induction); higher = less antimicrobial activity (less host growth inhibition)
Details: time post-induction: 4.5 h; library: site-saturation at positions 5, 18, 19, 20
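Note: peptides expressed intracellularly from a pBAD plasmid library in pooled LB shake-flask culture, induced with 0.3% L-arabinose, DNA abundance read by NGS, three biological replicates, DESeq2 with apeglm shrinkage.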

Sequence	shrunken log2 fold change
RRIRARPPRLPRPRPRPFINPRP	-0.356
RRIRARPPRLPRPRPRPFITPRP	-0.543
RRIRARPPRLPRPRPRPFKDPRP	-0.0208
RRIRARPPRLPRPRPRPFLFPRP	0.162
RRIRARPPRLPRPRPRPFLSPRP	-0.107
RRIRARPPRLPRPRPRPFMCPRP	0.618
RRIRARPPRLPRPRPRPFMSPRP	-0.0065
RRIRARPPRLPRPRPRPFNMPRP	-0.201
RRIRARPPRLPRPRPRPFPAPRP	0.439
RRIRARPPRLPRPRPRPFPEPRP	0.319
RRIRARPPRLPRPRPRPFSSPRP	-0.159
RRIRARPPRLPRPRPRPFTAPRP	-0.111
RRIRARPPRLPRPRPRPFTNPRP	-0.273
RRIRARPPRLPRPRPRPFVGPRP	-0.0485
RRIRARPPRLPRPRPRPFVQPRP	-0.00645
RRIRARPPRLPRPRPRPFVRPRP	-0.0552
RRIRARPPRLPRPRPRPFWYPRP	-0.181
RRIRARPPRLPRPRPRPFYNPRP	-0.44
RRIRARPPRLPRPRPRPGAEPRP	1.1
RRIRARPPRLPRPRPRPGAHPRP	0.669

Sequence	shrunken log2 fold change
RRIRARPPRLPRPRPRPGAPPRP	0.703
RRIRARPPRLPRPRPRPGCCPRP	0.841
RRIRARPPRLPRPRPRPGDDPRP	0.846
RRIRARPPRLPRPRPRPGDTPRP	0.264
RRIRARPPRLPRPRPRPGEDPRP	0.814
RRIRARPPRLPRPRPRPGENPRP	0.687
RRIRARPPRLPRPRPRPGEPPRP	0.601
RRIRARPPRLPRPRPRPGFLPRP	0.426
RRIRARPPRLPRPRPRPGGPPRP	0.294
RRIRARPPRLPRPRPRPGHGPRP	0.377
RRIRARPPRLPRPRPRPGICPRP	0.182
RRIRARPPRLPRPRPRPGKIPRP	0.0623
RRIRARPPRLPRPRPRPGKRPRP	0.374
RRIRARPPRLPRPRPRPGLDPRP	0.419
RRIRARPPRLPRPRPRPGLTPRP	0.686
RRIRARPPRLPRPRPRPGMAPRP	0.709
RRIRARPPRLPRPRPRPGMVPRP	0.509
RRIRARPPRLPRPRPRPGNHPRP	-0.0331
RRIRARPPRLPRPRPRPGPRPRP	1.22
RRIRARPPRLPRPRPRPGQKPRP	-0.0844

Sequence	shrunken log2 fold change
RRIRARPPRLPRPRPRPGQNPRP	0.596
RRIRARPPRLPRPRPRPGSDPRP	0.536
RRIRARPPRLPRPRPRPGSGPRP	0.576
RRIRARPPRLPRPRPRPGSIPRP	-0.283
RRIRARPPRLPRPRPRPGSSPRP	-0.112
RRIRARPPRLPRPRPRPGTRPRP	0.532
RRIRARPPRLPRPRPRPGVQPRP	0.0878
RRIRARPPRLPRPRPRPGVSPRP	0.559
RRIRARPPRLPRPRPRPGWGPRP	0.463
RRIRARPPRLPRPRPRPGWQPRP	0.0839
RRIRARPPRLPRPRPRPGYAPRP	0.0374
RRIRARPPRLPRPRPRPGYWPRP	0.363
RRIRARPPRLPRPRPRPHAWPRP	0.375
RRIRARPPRLPRPRPRPHDAPRP	0.122
RRIRARPPRLPRPRPRPHDPPRP	0.402
RRIRARPPRLPRPRPRPHFRPRP	0.166
RRIRARPPRLPRPRPRPHFWPRP	0.23
RRIRARPPRLPRPRPRPHGFPRP	-0.00228
RRIRARPPRLPRPRPRPHGPPRP	0.321
RRIRARPPRLPRPRPRPHGRPRP	0.0226
